Data published in patent publication US20170052184A1.
Residue numbers refer to the chain shown, from its start. Read-outs that look alike come from different tables or passages of the source.

T1: HCV bt-141-161 (Peptide 2, HCVc 141-161) (Hepatitis C virus (numbering per HCV-1))
T1 sequence (peptide, biotin (carboxy-terminal per [p-0227]; N-terminal per [p-0050])): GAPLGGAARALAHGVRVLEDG

T2: HCV bt-151-171 (Peptide 3, HCVc 151-171) (Hepatitis C virus (numbering per HCV-1))
T2 sequence (peptide, biotin (carboxy-terminal per [p-0227]; N-terminal per [p-0050])): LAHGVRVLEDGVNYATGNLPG

T3: HCV bt-134-154 (Peptide 1, HCVc 134-154) (Hepatitis C virus (numbering per HCV-1))
T3 sequence (peptide, biotin (carboxy-terminal per [p-0227]; N-terminal per [p-0050])): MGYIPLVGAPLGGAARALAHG

T4: HCV Core1-169 (hepatitis C virus (HCV-1)), P26664
T4 chain: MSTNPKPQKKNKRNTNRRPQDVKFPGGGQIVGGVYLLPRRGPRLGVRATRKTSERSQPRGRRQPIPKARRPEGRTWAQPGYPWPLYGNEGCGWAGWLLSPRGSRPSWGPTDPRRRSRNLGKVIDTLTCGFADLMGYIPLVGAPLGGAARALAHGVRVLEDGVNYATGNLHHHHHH

T5: HCV Core1-169 (HCV-1), P26664
T5 chain: T4 chain

B1: HCV 208A-874 (antibody, V domains shown)
VH: QVQLQQPGAELVKPGASVKLSCKASGYTLSSYWMHWVKQRPGQGLEWIGEIHPSDSYTSYNQKFKDKATLTVDKSSSTAYMQLSSLTSEDSAVYYCARGGYYRYDEFAYWGQGTLVTVSA
VL: DIVMTQSHKFMSTSIGDRVSITCKASQNVSPAVAWYQQKPGQSPKLLIYSASSRYTGVPDRFTGSGSGTAFTFTISSVQAEDLAVYFCQQHFSTPWTFGGGTMLEIKR
B2: HCV 208A-967 (antibody, V domains shown)
VH: QVQLEESGPGLVAPSQSLSITCTVSGFSLTSYGVHWVRQPPGKGLEWLGVIWAVGSINYNSALMSRLSISKDNSKSQVFLKMNSLRTDDTAMYYCARDRTTATPFFDYWGQGTTLTVSS
VL: DIVLTQSPASLAGSLGKRAPISCKASESVNFFGTNLIHWYQQKPGQPPKLLIYHASNLKTGVPARFRGRGSKTNFPLPIDPVEENDVAIYYCLQNRKIPLTFGVGTKLELKR
B3: HCV 208B-174 (antibody, V domains shown)
VH: EVKLEESGGGLVQPGGSMKLSCVASGFSFSSYWMSWVRQSPEKGLDWVAEIRLRSDNYATHYAESVKGRFTISRDDSISRLYLQMNTLRAEDTGIYYCTWMTYWGQGTLVTVSA
VL: QNVLTQSPAIMSASPGEKVTMSCSASSSVTYMFWYQLKPESSPRLLIYDTSNLASGVPVRFSGSGSGTSYSLTISRMEAEDAATYYCQEWSSYPLTFGAGTKLDLKR
B4: HCV 208A-983 (antibody, V domains shown)
VH: QGQMQQSGAELVKPGASVKLSCKTSGFTFSSSYFSWLKQKPGQSLEWIAWIYAGTGNTIYNQKFTDKAQLTVDTASSTAFMQLSSLTIEDSAIYYCAISGTGFTYWGQGTLVTVSA
VL: DVLMTQTPLSLPVNLGDQASISCRSSQSLLHSNGNTYLEWFLQKPGQSPKLLIYNVSNRFSGVPDRFSGSGSGTDFTLKISRVEAEDLGVYYCFQGSHVPFTFGSGTKLAIKR
B5: HCV 208B-471 (antibody, V domains shown)
VH: QGQLQQSGPVLVKPGASEILYCKTSGFTFSSTYISWLKQKPGQSLEWIAWIYAGTGATNYNQKFTGKAQLTVDASSNTAYMHFSGLTPEDSAIYYCAISGAGVYWGQGTLVTVSA
VL: B4 VL with L3V, N14S, F41Y, K50N, T77A, E84G, F101L, S105A, A110E, I111L
B6: HCV 208A-422 (antibody, V domains shown)
VH: DVQLQESGPGLVNPSQSLSLTCSVTGYSITSGYYWIWIQQSPGNKLEWMGYIKYDGGNNYSPSLKNRISIARDTSKNQCFLKLNSVTIEDTATYYCTRGSDSFDYWGQGTTLTVSS
VL: DIVLTQSPASLAVSLGQRAIISCKASQSVSFAGTNLMHWYQQKPGQQPKLLIYRASNLETGVPTRFSGSGSRTDFTLNIHPVEEDDAATYYCQQSREYYTFGGGTKLEIKR

Assays:
[1] = target: bovine serum albumin (BSA) (bovine) (UniProt P02769); test: EIA, BSA background
HCV Core1-169 (HCV-1) [2] = target: HCV Core1-169 (HCV-1) (UniProt P26664); test: EIA, core1-169 coated on plate
HCV Core1-169 (HCV-1) [3] = target: HCV Core1-169 (HCV-1) (UniProt P26664); test: EIA, core1-169 captured by mAb 14-153-229
[4] = target: bovine serum albumin (BSA) (bovine) (UniProt P02769); test: EIA, BSA background; remark: listed apart in the source
[5] = target: bovine serum albumin (bovine) (UniProt P02769); test: EIA, BSA control
[6] = target: HCV Core1-169 (hepatitis C virus (HCV-1)) (UniProt P26664); test: SPR sandwich, capture mAb C11-14
[7] = target: T1, HCV bt-141-161 (Peptide 2, HCVc 141-161) (Hepatitis C virus (numbering per HCV-1)); test: EIA, captured mAb + biotin peptide
[8] = target: T2, HCV bt-151-171 (Peptide 3, HCVc 151-171) (Hepatitis C virus (numbering per HCV-1)); test: EIA, captured mAb + biotin peptide
[9] = target: T3, HCV bt-134-154 (Peptide 1, HCVc 134-154) (Hepatitis C virus (numbering per HCV-1)); test: EIA, captured mAb + biotin peptide
[10] = target: HCV Core1-169 (hepatitis C virus (HCV-1)) (UniProt P26664); test: SPR sandwich, capture mAb C11-7
[11] = target: HCV Core1-169 (hepatitis C virus (HCV-1)) (UniProt P26664); test: SPR sandwich, capture mAb C11-9
[12] = target: HCV Core1-169 (hepatitis C virus (HCV-1)) (UniProt P26664); test: SPR sandwich, capture mAb C11-3
[13] = target: T4, HCV Core1-169 (hepatitis C virus …); test: SPR sandwich, capture mAb C11-14; conditions: remark: other sources report otherwise
[14] = target: T4, HCV Core1-169 (hepatitis C virus …); test: SPR sandwich, capture mAb C11-7; conditions: remark: other sources report otherwise
[15] = target: T5, HCV Core1-169 (HCV-1), P26664; test: EIA, core1-169 captured by mAb 14-153-229; conditions: remark: other sources report otherwise
[16] = target: T4, HCV Core1-169 (hepatitis C virus …); test: SPR sandwich, capture mAb C11-3; conditions: remark: other sources report otherwise
[17] = target: T5, HCV Core1-169 (HCV-1), P26664; test: EIA, core1-169 coated on plate; conditions: remark: other sources report otherwise
[18] = target: T4, HCV Core1-169 (hepatitis C virus …); test: SPR sandwich, capture mAb C11-9; conditions: remark: other sources report otherwise

Chain of bovine serum albumin (BSA) (bovine) (P02769 25-607 limits assumed): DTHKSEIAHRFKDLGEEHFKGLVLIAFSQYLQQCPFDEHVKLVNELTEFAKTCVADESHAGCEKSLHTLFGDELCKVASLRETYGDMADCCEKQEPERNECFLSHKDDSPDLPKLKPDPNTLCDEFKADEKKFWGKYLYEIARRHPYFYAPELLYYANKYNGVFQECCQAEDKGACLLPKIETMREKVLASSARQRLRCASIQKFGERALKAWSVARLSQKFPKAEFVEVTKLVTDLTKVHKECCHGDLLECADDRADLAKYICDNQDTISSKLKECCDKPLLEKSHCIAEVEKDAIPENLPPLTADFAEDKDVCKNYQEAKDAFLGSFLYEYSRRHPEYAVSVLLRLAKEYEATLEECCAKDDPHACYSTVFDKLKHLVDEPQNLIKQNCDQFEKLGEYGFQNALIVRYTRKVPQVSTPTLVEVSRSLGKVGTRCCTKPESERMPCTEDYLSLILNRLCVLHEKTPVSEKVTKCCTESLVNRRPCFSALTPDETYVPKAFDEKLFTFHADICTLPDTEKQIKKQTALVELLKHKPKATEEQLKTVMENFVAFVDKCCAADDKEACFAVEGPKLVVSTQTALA
Chain of bovine serum albumin (bovine) (P02769 25-607 limits assumed): as above

Binder | OD (A492) [1] | OD (A492) (HCV Core1-169 (HCV-1) [2]) | OD (A492) (HCV Core1-169 (HCV-1) [3]) | OD (A492) [4] | Reactivity (OD 492 nm) [5] | expected percent binding [6] | Reactivity (OD 492 nm) [7] | Reactivity (OD 492 nm) [8] | Reactivity (OD 492 nm) [9] | expected percent binding [10] | expected percent binding [11] | expected percent binding [12] | expected percent binding [13] | expected percent binding [14] | OD (A492) [15] | expected percent binding [16] | OD (A492) [17] | expected percent binding [18]
B1 | 0.06 OD | 0.45 OD | 0.18 OD | 0.1 OD | 0.05 OD units | – | – | – | – | – | – | – | – | – | – | – | – | –
B2 | 1.3 OD | 1.08 OD | 0.18 OD | 0.15 OD | 0.07 OD units | < 1% | 0.73 OD units | 0.18 OD units | 0.52 OD units | < 1% | < 1% | < 1% | – | – | – | – | – | –
B3 | – | – | – | – | – | – | – | – | – | – | – | – | 1.6% | 1.5% | 0.75 OD | 1.6% | 0.15 OD | < 1%
B4 | – | – | – | – | – | – | – | – | – | – | – | – | < 1% | < 1% | 0.64 OD | < 1% | 0.12 OD | < 1%
B5 | – | – | – | – | – | – | – | – | – | – | – | – | < 1% | < 1% | 0.35 OD | < 1% | 0.24 OD | < 1%
B6 | 1.1 OD | 1.68 OD | 0.18 OD | 0.11 OD | 0.07 OD units | – | – | – | – | – | – | – | – | – | – | – | – | –
